Numbered stars: 1 amine (or outer) side, 2 acyl side, 3 side chain; on linkers, the order of the positions; unused ones are H or OH. Bridge positions count the residues as written; N and C are the ends. Square brackets hold non-standard residues; d marks the D form. Ends that are not written are not given here. * marks the point of attachment. HAY = 2-(4-hydroxyphenyl)acetic acid replacing N-terminal Tyr, O=C(Cc1ccc(O[*:3])cc1)[*:2]; Desaminotyrosyl = O=C(CCc1ccc(O)cc1)*; Aib = CC(C)(N)C(=O)O
T1: human GIP receptor (human, UniProt P48546 22-466)
T1 sequence (looked up): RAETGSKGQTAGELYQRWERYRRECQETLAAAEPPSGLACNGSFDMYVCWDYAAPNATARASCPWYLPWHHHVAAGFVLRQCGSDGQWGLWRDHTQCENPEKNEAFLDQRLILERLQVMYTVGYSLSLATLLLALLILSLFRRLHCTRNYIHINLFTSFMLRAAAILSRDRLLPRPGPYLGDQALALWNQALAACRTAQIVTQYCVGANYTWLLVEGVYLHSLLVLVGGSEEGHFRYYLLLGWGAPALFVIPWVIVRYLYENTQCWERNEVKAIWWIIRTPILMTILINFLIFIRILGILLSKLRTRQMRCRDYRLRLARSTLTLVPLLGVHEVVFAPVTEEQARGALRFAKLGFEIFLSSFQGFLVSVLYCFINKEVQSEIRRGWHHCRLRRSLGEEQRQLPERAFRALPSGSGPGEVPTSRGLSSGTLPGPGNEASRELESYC


Target: T1, human GIP receptor
Test: cell-based or functional assay

Binder | In vitro activity (%) compared to native-type peptide, vs human GIP (cAMP EC50, human GIP receptor-expressing CHO cells) [%]
Y[Aib]EGTFTSDYSEYMEKEAVREFIAWLVKGGPSSGAPPPSC (bridge 12-16) [GLP-1/GIP dual agonist of SEQ ID NO: 1] | 27.5
Y[Aib]EGTFTSDYSKYLDEKAAKDFVQWLLDHHPSSGQPPPSC (bridge 16-20) [GLP-1/GIP dual agonist of SEQ ID NO: 5] | 48.2
Y[Aib]EGTFTSDYSKYLDERAQKDFVQWLLDHHPSSGQPPPSC (bridge 16-20; also: ring type not given here) [GLP-1/GIP dual agonist of SEQ ID NO: 7] | 62.3
Y[Aib]EGTFTSDYSKYLDERASKDFVQWLLDHHPSSGQPPPSC (bridge 16-20; also: ring type not given here) [GLP-1/GIP dual agonist of SEQ ID NO: 8] | 29.2
H[Aib]EGTFTSDYSKYLDKKRQ[Aib]EFVQWLLNGGPSSGAPPPSC [GLP-1/GIP dual agonist of SEQ ID NO: 14] | 0.3
Y[Aib]EGTFTSDYSIYLDERACKDFVQWLLDHHPSSGQPPPSYK (bridge 16-20) [GLP-1/GIP dual agonist of SEQ ID NO: 15] | 64.4
Y[Aib]EGTFTSDYSKYLDEIRAKDFVQWLLDHHPSSGQPPPSC (bridge 16-20) [GLP-1/GIP dual agonist of SEQ ID NO: 2] | 28.8
Y[Aib]EGTFTSDYSI[Aib]LDKIAQRAFVQWLIAGGPSSGAPPPSK [GLP-1/GIP dual agonist of SEQ ID NO: 16] | 72.3
Y[Aib]EGTFTSDYSIQLDKIAQKAFVQWLIAGGPSSGAPPPSC [GLP-1/GIP dual agonist of SEQ ID NO: 17] | 7.7
Y[Aib]EGTFTSDYSIQLDKIAQRAFVQWLIAGGPSSGAPPPSK [GLP-1/GIP dual agonist of SEQ ID NO: 18] | 15.9
Y[Aib]EGTFTSDYSIYLDKQAA[Aib]AFVQWLIAGGPSSGAPPPSC [GLP-1/GIP dual agonist of SEQ ID NO: 19] | 13.9
Y[Aib]EGTFTSDYSI[Aib]LDKQAA[Aib]AFVQWLIAGGPSSGAPPPSC [GLP-1/GIP dual agonist of SEQ ID NO: 20] | 64.2
Y[Aib]EGTFTSDYSI[Aib]LDKIAAKAFVQWLIAGGPSSGAPPPSC [GLP-1/GIP dual agonist of SEQ ID NO: 21] | 23.2
Y[Aib]EGTFTSDYSKYLDEKAAKEFVQWLLDQHPSSGQPPPSC (bridge 16-20) [GLP-1/GIP dual agonist of SEQ ID NO: 22] | 39.6
Y[Aib]EGTFTSDYSKYLDEQAAKEFVQWLLDQHPSSGAPPPSC (bridge 16-20) [GLP-1/GIP dual agonist of SEQ ID NO: 23] | 106
Y[Aib]EGTFTSDYSKYLDEIAQKDFVQWLLDQHPSSGAPPPSC (bridge 16-20) [GLP-1/GIP dual agonist of SEQ ID NO: 24] | 83.9
Y[Aib]EGTFTSDYSKYLDEEAVKLFVQWLLDQHPSSGAPPPSC (bridge 16-20) [GLP-1/GIP dual agonist of SEQ ID NO: 25] | 59.4
Y[Aib]EGTFTSDYSKYLDEIAAKDFVQWLLDHHPSSGQPPPSC (bridge 16-20) [GLP-1/GIP dual agonist of SEQ ID NO: 3] | 28.7
Y[Aib]EGTFTSDYSIAMDAIAQQDFVNWLLAQKGKKNDWKHNITQC [GLP-1/GIP dual agonist of SEQ ID NO: 26] | 57.9
Y[Aib]EGTFTSDYSIAMDAIAQQDFVNWLLAQRGKKSDWKHNITQC [GLP-1/GIP dual agonist of SEQ ID NO: 27] | 55.5
Y[Aib]EGTFTSDYSIALEKQAQQDFVNWLLAGGPSSGAPPPSC [GLP-1/GIP dual agonist of SEQ ID NO: 28] | 146
Y[Aib]EGTFTSDYSI[Aib]LDKQAA[Aib]EFVNWLL[Aib]GGPSSGAPPPSC [GLP-1/GIP dual agonist of SEQ ID NO: 29] | 96
Y[Aib]EGTFTSDYSI[Aib]LDKQAA[Aib]EFVNWLL[Aib]GHPSSGAPPPSC [GLP-1/GIP dual agonist of SEQ ID NO: 30] | 63.4
[Desaminotyrosyl][Aib]EGTFTSDYSI[Aib]LDKIAQRAFVQWLIAGGPSSGAPPPSK [GLP-1/GIP dual agonist of SEQ ID NO: 31] | 38.3
[HAY][Aib]EGTFTSDYSI[Aib]LDKIAQRAFVQWLIAGGPSSGAPPPSK [GLP-1/GIP dual agonist of SEQ ID NO: 32] | 20.1
Y[Aib]EGTFTSDYSI[Aib]LDKQAARAFVQWLIAGGPSSGAPPPSC [GLP-1/GIP dual agonist of SEQ ID NO: 34] | 63.4

Target: human GLP-1 receptor (human, UniProt P43220 24-463)
Test: cell-based or functional assay

Binder | In vitro activity (%) compared to native-type peptide, vs human GLP-1 (cAMP EC50, human GLP-1 receptor-expressing CHO cells) [%]
Y[Aib]EGTFTSDYSEYMEKEAVREFIAWLVKGGPSSGAPPPSC (bridge 12-16) [GLP-1/GIP dual agonist of SEQ ID NO: 1] | 53.9
Y[Aib]EGTFTSDYSKYLDEKAAKDFVQWLLDHHPSSGQPPPSC (bridge 16-20) [GLP-1/GIP dual agonist of SEQ ID NO: 5] | 20.2
Y[Aib]EGTFTSDYSKYLDERAQKDFVQWLLDHHPSSGQPPPSC (bridge 16-20; also: ring type not given here) [GLP-1/GIP dual agonist of SEQ ID NO: 7] | 18.3
Y[Aib]EGTFTSDYSKYLDERASKDFVQWLLDHHPSSGQPPPSC (bridge 16-20; also: ring type not given here) [GLP-1/GIP dual agonist of SEQ ID NO: 8] | 35.9
Y[Aib]EGTFTSDYSRYLDERAAKDFVQWLLDHHPSSGQPPPSK (bridge 16-20) [GLP-1/GIP dual agonist of SEQ ID NO: 9] | 141
Y[Aib]EGTFTSDYSRYLDERAQKDFVQWLLDHHPSSGQPPPSK (bridge 16-20) [GLP-1/GIP dual agonist of SEQ ID NO: 10] | 108
Y[Aib]EGTFTSDYSRYLDERASKDFVQWLLDHHPSSGQPPPSK (bridge 16-20) [GLP-1/GIP dual agonist of SEQ ID NO: 11] | 95
Y[Aib]EGTFTSDYSEYMEKEAVREFIAWLVRGGPSSGAPPPSK (bridge 12-16) [GLP-1/GIP dual agonist of SEQ ID NO: 12] | 110
Y[Aib]EGTFTSDYSEYMEKEAVREFISWLVRGGPSSGAPPPSK (bridge 12-16) [GLP-1/GIP dual agonist of SEQ ID NO: 13] | 116
H[Aib]EGTFTSDYSKYLDKKRQ[Aib]EFVQWLLNGGPSSGAPPPSC [GLP-1/GIP dual agonist of SEQ ID NO: 14] | 160
Y[Aib]EGTFTSDYSIYLDERACKDFVQWLLDHHPSSGQPPPSYK (bridge 16-20) [GLP-1/GIP dual agonist of SEQ ID NO: 15] | 97.5
Y[Aib]EGTFTSDYSKYLDEIRAKDFVQWLLDHHPSSGQPPPSC (bridge 16-20) [GLP-1/GIP dual agonist of SEQ ID NO: 2] | 3.3
Y[Aib]EGTFTSDYSI[Aib]LDKIAQRAFVQWLIAGGPSSGAPPPSK [GLP-1/GIP dual agonist of SEQ ID NO: 16] | 60
Y[Aib]EGTFTSDYSIQLDKIAQKAFVQWLIAGGPSSGAPPPSC [GLP-1/GIP dual agonist of SEQ ID NO: 17] | 19.8
Y[Aib]EGTFTSDYSIQLDKIAQRAFVQWLIAGGPSSGAPPPSK [GLP-1/GIP dual agonist of SEQ ID NO: 18] | 43.3
Y[Aib]EGTFTSDYSIYLDKQAA[Aib]AFVQWLIAGGPSSGAPPPSC [GLP-1/GIP dual agonist of SEQ ID NO: 19] | 32.8

Binder | In vitro activity (%) compared to native-type peptide, vs human GLP-1 (cAMP EC50, human GLP-1 receptor-expressing CHO cells) [%]
Y[Aib]EGTFTSDYSI[Aib]LDKQAA[Aib]AFVQWLIAGGPSSGAPPPSC [GLP-1/GIP dual agonist of SEQ ID NO: 20] | 31.5
Y[Aib]EGTFTSDYSI[Aib]LDKIAAKAFVQWLIAGGPSSGAPPPSC [GLP-1/GIP dual agonist of SEQ ID NO: 21] | 19.7
Y[Aib]EGTFTSDYSKYLDEKAAKEFVQWLLDQHPSSGQPPPSC (bridge 16-20) [GLP-1/GIP dual agonist of SEQ ID NO: 22] | 41.1
Y[Aib]EGTFTSDYSKYLDEQAAKEFVQWLLDQHPSSGAPPPSC (bridge 16-20) [GLP-1/GIP dual agonist of SEQ ID NO: 23] | 13.5
Y[Aib]EGTFTSDYSKYLDEIAQKDFVQWLLDQHPSSGAPPPSC (bridge 16-20) [GLP-1/GIP dual agonist of SEQ ID NO: 24] | 7.3
Y[Aib]EGTFTSDYSKYLDEEAVKLFVQWLLDQHPSSGAPPPSC (bridge 16-20) [GLP-1/GIP dual agonist of SEQ ID NO: 25] | 3.2
Y[Aib]EGTFTSDYSKYLDEIAAKDFVQWLLDHHPSSGQPPPSC (bridge 16-20) [GLP-1/GIP dual agonist of SEQ ID NO: 3] | 6.8
Y[Aib]EGTFTSDYSIAMDAIAQQDFVNWLLAQKGKKNDWKHNITQC [GLP-1/GIP dual agonist of SEQ ID NO: 26] | 0.3
Y[Aib]EGTFTSDYSIAMDAIAQQDFVNWLLAQRGKKSDWKHNITQC [GLP-1/GIP dual agonist of SEQ ID NO: 27] | 0.2
Y[Aib]EGTFTSDYSIALEKQAQQDFVNWLLAGGPSSGAPPPSC [GLP-1/GIP dual agonist of SEQ ID NO: 28] | 6.7
Y[Aib]EGTFTSDYSI[Aib]LDKQAA[Aib]EFVNWLL[Aib]GGPSSGAPPPSC [GLP-1/GIP dual agonist of SEQ ID NO: 29] | 0.5
Y[Aib]EGTFTSDYSI[Aib]LDKQAA[Aib]EFVNWLL[Aib]GHPSSGAPPPSC [GLP-1/GIP dual agonist of SEQ ID NO: 30] | 1
[Desaminotyrosyl][Aib]EGTFTSDYSI[Aib]LDKIAQRAFVQWLIAGGPSSGAPPPSK [GLP-1/GIP dual agonist of SEQ ID NO: 31] | 93.3
[HAY][Aib]EGTFTSDYSI[Aib]LDKIAQRAFVQWLIAGGPSSGAPPPSK [GLP-1/GIP dual agonist of SEQ ID NO: 32] | 88.3
Y[Aib]EGTFTSDYSI[Aib]LDKQAARAFVQWLIAGGPSSGAPPPSC [GLP-1/GIP dual agonist of SEQ ID NO: 34] | 34.2

Source: US20230382970A1 (HANMI PHARM, published 2023)
